Results: article PMC8844856, “Structural basis of cyclic oligoadenylate binding to the transcription factor Csa3 outlines cross talk between type III and type I CRISPR systems” (The Journal of Biological Chemistry, 2022)
Numbering of substitutions follows the chain as printed.

Columns and labels:
Conditions in all cases: protein: recombinant; tags: N-terminal His6; chain copies: 2; cyclic; no ends
Csa3Sso G96A = target: T1, Csa3Sso G96A (Saccharolobus solfataricus P2, UniProt Q97Y88 1-237, G96A); assay: MST; nonspecific signal at high cA4 only; MST buffer not given in the material; Cy5 EMSA: 50 nM probe, 0.5-25 uM protein, 5% acrylamide TBE, 4 C; agarose EMSA: 2% TBE, room temperature; crystals: 20 mM
T1 sequence: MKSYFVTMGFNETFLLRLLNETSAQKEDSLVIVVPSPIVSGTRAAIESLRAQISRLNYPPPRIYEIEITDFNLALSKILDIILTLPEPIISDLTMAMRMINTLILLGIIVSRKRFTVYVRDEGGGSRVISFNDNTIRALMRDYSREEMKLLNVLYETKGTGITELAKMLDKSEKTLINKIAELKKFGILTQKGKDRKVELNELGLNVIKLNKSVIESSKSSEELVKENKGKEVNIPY

Csa3Sso F10A = target: T2, Csa3Sso F10A (Saccharolobus solfataricus P2, UniProt Q97Y88 1-237, F10A); assay: as above
T2 sequence: T1 sequence with F10A, A96G

Csa3Sso F14A = target: T3, Csa3Sso F14A (Saccharolobus solfataricus P2, UniProt Q97Y88 1-237, F14A); assay: as above
T3 sequence: T1 sequence with F14A, A96G

Csa3Sso R98A = target: T4, Csa3Sso R98A (Saccharolobus solfataricus P2, UniProt Q97Y88 1-237, R98A); assay: as above
T4 sequence: T1 sequence with A96G, R98A

Csa3Sso E122Q = target: T5, Csa3Sso E122Q (Saccharolobus solfataricus P2, UniProt Q97Y88 1-237, E122Q); assay: MST; MST buffer not given in the material; Cy5 EMSA: 50 nM probe, 0.5-25 uM protein, 5% acrylamide TBE, 4 C; agarose EMSA: 2% TBE, room temperature; crystals: 20 mM
T5 sequence: T1 sequence with A96G, E122Q

Csa3Sso E122A = target: T6, Csa3Sso E122A (Saccharolobus solfataricus P2, UniProt Q97Y88 1-237, E122A); assay: as above
T6 sequence: T1 sequence with A96G, E122A

## AAAA (ssRNA, cyclic, 3'-5' linked tetra-adenylate (CHEBI:142457)) [cA4]
Csa3Sso G96A
  binding result: no binding
Csa3Sso F10A
  binding result: no binding
Csa3Sso F14A
  binding result: no binding
Csa3Sso R98A
  binding result: no binding
Csa3Sso E122Q
  Kd: 44.5 nM
Csa3Sso E122A
  Kd: 38.3 nM
